Experimental data published in patent US20240343781A1 (TRUSTEES OF COLUMBIA UNIVERSITY IN THE CITY OF NEW YORK, published 2024).

B1: engineered monoclonal antibody 11-11 (antibody, V domains shown)
VH: QVQLQESGPGLVKPSQTLSLTCTVSGGSISSGGYYWSWIRQHPGKGLEWIGYIYYSGSTYYNPSLKSRVTISVDTSKNQFSLKVSSVTAADTAVYYCASSNYYDGSGYNLLESYGMDVWGQGTSVTVSS
VL: QSVLTQPPSVSGAPGQRVTISCTGSSSNIGAGYDVHWYQQLPGTAPKLLIYGNSNRPSGVPDRFSGSRSGTSASLAITGLQAEDEADYYCQSYDSSLSGSWVFGGGTKVTVL
B2: engineered monoclonal antibody 10-40 (antibody, V domains shown)
VH: QLQLQESGPGLVKPSETLSLTCTVSGGSISSSNFYWGWIRQPPGKGLEWIASITYSGRTFYNPSLKSRVAISVDTSKNQFSLKLSSVTAADTAVYYCARTFPSYYDRSGYHYLNYGMDVWGQGTTVTVSS
VL: NFMLTQPHSMSESPGKTVTISCTRSSGSIASNYVQWYQQRPGSSPTTVIYEDNQRPSGVPDRFSGSIDSSSNSASLTISGLKTEDEADYYCQSYDSSSWVFGGGTKLTVL

Target: SARS-COV spike on pseudovirus (SARS-CoV, UniProt P59594 14-1255)
Test: cell-based or functional assay

| Binder | IC50, neutralization of pseudoviruses |
| --- | --- |
| B1 | 0.025 µg/mL |
| B2 | 0.019 µg/mL |
